From patent US8852956
Several values for one entry are separate records, joined by “and”; a condition that tells them apart may be missing. Equal entries are not always repeated.

Columns and labels:
[1] = molecular target: Rap55, T^2-ELISA construct, cell-free expressed from PCR product with N-terminal VSV-G and C-terminal HSV epitope tags (UniProt Q8ND56)
[2] = molecular target: Rap55, T^2-ELISA construct, cell-free expressed from PCR product with N-terminal VSV-G and C-terminal HSV epitope tags (UniProt Q8ND56); test: dual-reporter T^2-ELISA, against the single-reporter HRP control

Chain of UniProt Q8ND56 (Q8ND56 1-463, tags or fused parts left off): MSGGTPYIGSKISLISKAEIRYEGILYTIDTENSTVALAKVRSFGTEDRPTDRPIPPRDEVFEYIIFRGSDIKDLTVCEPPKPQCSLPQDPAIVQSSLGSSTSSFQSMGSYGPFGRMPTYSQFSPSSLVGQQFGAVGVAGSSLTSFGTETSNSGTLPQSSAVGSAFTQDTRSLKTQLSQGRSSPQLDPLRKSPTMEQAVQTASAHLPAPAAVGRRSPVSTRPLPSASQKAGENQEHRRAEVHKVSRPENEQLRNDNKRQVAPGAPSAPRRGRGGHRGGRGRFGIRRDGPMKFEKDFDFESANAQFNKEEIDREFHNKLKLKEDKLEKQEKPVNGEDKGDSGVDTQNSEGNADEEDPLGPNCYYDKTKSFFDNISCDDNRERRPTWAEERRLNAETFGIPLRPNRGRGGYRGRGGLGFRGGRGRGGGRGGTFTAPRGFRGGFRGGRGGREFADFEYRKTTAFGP

## anti-VSV-G horseradish peroxidase (HRP) labeled monoclonal antibody (Clone P5D4, Roche Applied Science)
[1]
  Signal to Noise: 698 and 760
[2]
  Percent of Control (HRP detection, VSV-G tag): 96.5%
